Experimental data as given in a protein production outcome set (Wang et al. 2014).

Experiment: label from the status in PepcDB records
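Also: failed if final PepcDB status was selected cloned or expressed and not failed if soluble or beyond.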

| Sequence | protein production |
| --- | --- |
| MKKKLFYYLFAVLCTATLFTSCSDDDDEVKYPIDTELAGGYVGNLSVNVDGNQMGTTENQKITISQSNKETNQIALSLKNFTFLVNVGDIEVDPCTVKAIDGGYAFEGQQNLDLVQPLGNCPVSISGTVKGSNINIEIGVKVGAPLNQNVKATFVGRKLTGSESSEAKIISFILDDDIVTEQPIINEEEGIVTFKVSDAAVDDDLSGMIPTIVVSSKAKITPASGVAQDFSNGKKVEYTVTAEDGTTKKYSVFIAGSSDYYSFETWKSLNDGAFEEPDGGWATSNTGVWFIKTVYPDVYNGDYPVVKSEDAKDGAVGVKLITLDTKGQAGADWGFIKIPAIPKVTSGSLFLGTFETDIQNTLNSTKFGNPYYSKPISVQFSYKYTPGAVYYTCPDPVKAEAVTEDPNTTDECSVTAVIYEVPYWETVDPDDANNKAYDKRLTGANLYTNTDQVIAMATFSSGVQEDYKDITLTLNYEKDYDPTKKYRFAIVFSSSKNGDKFSGAPGSTLIVDNVKVVAEK | failed |
| MLAVFTKSVAGVKLFGMMYPVLERSENLPTDDSIDAIKEIAKALQSVLFKLHINGYSSLLHPLGVNNVDFILKFYVVKDGENDSLRVINVYHKLCGEAEDSWLEIVNNFRGEFSFISMMQRIEASLLLINAVKCYVVSDTLGNLFFRNDYNFGTGGSVCYVHIFGGHYLASGKGLRKLQLPLMETKMEPLIPDDIV | failed |
| AIAAAPIESLLNEICESEDPIEELKSLRTAVLATPVSGLRPAVSGARLEIIFSLLNTNDKEQIEVCVEILSRVLQALEPVQLAQNYRTALQSGLNHPDDSVKVLTLTQIGRVAGHTEGVTQMLNNVEILHDVIQCISVERIAVAKEAIAALSKLSNTKAGLDALFRSDLLNKLKDVMLTSDIIRYRVYELIVEVSTVSPVSLGYCANSGLISQMLEELTGDDVLVRATAIEMVTNLAQSQHGRQYLAQQGIMDKISSVQKIFGAHNYLKLKTYLNEGSYYVTAVSAVTTEGAD | failed |
| MLVTSLVVKPALSTTLKMCTFSTLSAFVLTACSGNAETTNVAEIQHDMGSATAAASPKATAPEGTVLKRSAIDALQTVGNSIGIKIGSHLELGSAADFEKGNTTKVSIDAECFDMTSSSKAFIVACSDGVHSVDPVSGKNSVIAQPTETAHYAVQVSTGEVLVAHRDSNKVEVFNDGEKLSEVATEYGSDQLISVPIEGQADAVVRINNKYTLIQDVNWKESKPGAILRVGKGVGRISAAKQGVVLASDAKKNQFAVYGAKDVIRLHQTSPTGPSPWGITWDNKHDLAWVATTGDNKVTGYDISSGTGSEKSSYNTIENVHNIAVLDDGTLVLASASGAGLQLVKSQTD | failed |
| AQNQDCAFFFPNQEGEQITRNCYTADGKLTNILVYRVDQAYEYPSGMEVVANYTFADAAGKTLNSGQMVARCSDGNFSMSMGDVATFPTALNMMNADVYMMGDLMNYPDAFSNPMNPGDDDEFDDGTLRLYQKGNKNNRAEISVFDREFVTTETVNTPAGAFYCTKVKYEMNIWTPKETIKGYGYEWYAPNIGIVRSEQYNNKKELQSYSVLERIKK | not failed |
| MCVHTRKPDGLHPKPVSHCPVIDTGQSEWRSFTFTTICMGFRPRQAYRQPSPIANETENTMSNSNIQQEAQDIHDQLPESVDASPEDIEERLTTLVDDYRVPLDEAQRSVVSTYLSDSDVDRDDVSSENENQQVDLEEITEAEQWVDITAKVADLWEPRSDSIAQVGLLGDETGTIKFTKWAKSDLEALTEGQVYRLGNVVTDEYQGQYSVKLNRTTTIEALDQDIEVGDDTTDAEGALVDIQSGSGLIKRCPEDDCTRVLQNGRCSEHGEGEGEFDLRIKGVIDNGDTVQEVIFDKEATEQVADITLAQAQEMAMDALDTSVVADEIREVTLGRYYRVQGPELGRYLLVNEFEQLAEMHDPEQLLITARSILEHHHHHH | not failed |
| MANPPSQEADHLVEAFRYTVAKLFLQQAQKDHLKADKEAIFVLSELLLGYIEILTADLEAFCRHGKRTTITADDVLLCCRRNENLVSRHMLINRAAAEISSFP | failed |
| MSDLRTVPKHTALLIGLMIFGLFFGAGNLIFPVELGRLAGHSAPVTAAGFLVTAVGIPIVAIISSAVSGCSSVHGMTSRVSSQYATIFTCLLYLTIGPAFAIPRTATVSYEVGVAPFIQGHGPALPIFTIVFFAMTLVAALKPGKLMDWVGRYLTPLFLALLAILIVATLIHPMPTVANRPPQPPYDHQPFMHGFLDGYNTMDALASLAFAIVIIEAINQRGSTGRRDVTHITIRAGLVATIPLTLVYVSLAWLGRTSTLVVPNAANGGVVLAGVSRHYYGTAGQVLIAAIVLVACLKTAIGLVVACAEIFRRMFPAGPSVRSWVVIFSVASAIIANAGLTTIIAWSTPVLMFLYPLAITAIILGLLDPWLGASRLPHRIMTGCVVLAALPDLVRALPIQGSGTRAITHVADMVLPWASDGLGWGLPAIIGLAAGWGASLILGRPRRWGTSS | failed |
| GHMSEFVSIAARQEGAVGIIELARPDVLNALSRQMVAEIVAAVEAFDRNEKVRVIVLTGRGRAFAAGADIQEMAKDDPIRLEWLNQFADWDRLSIVKTPMIAAVNGLALGGGFELALSCDLIVASSAAEFGFPEVNLGVMPGAGGTQRLTKLIGPKRALEWLWTGARMSAKEAEQLGIVNRVVSPELLMEETMRLAGRLAEQPPLALRLIKEAVQKAVDYPLYEGMQFERKNFYLLFASEDQKEGMAAFLEKRKPRFQGK | not failed |
| MEKGVGFEKDMKTVSDGFVGGFFPVSTTKIAWKSRKRSALLNLDKAPEAVTEVTPEKNEITAMDTEKVGEPMTTTPLLSEKRKALFEPLEPITNLNGKRPTAADSLLPPPDFETANYPKGWLIGKKRKLVNVDVVESMRRIAVQEMNRKDREIDGLNEQLEEDSRCLEHLQLQLLQERSKRTEIERENTMLKEQVDMLVNMIQEDDEEGAEEP | failed |
| MDRHTTEGWRRWAARLGAAAMALLLAACAAPRQQAASVDELPSWNDGPSRTAIVEFVRAVTRSGGPDFVAADERIAVFDNDGTLWSEQPMYFQMLFALDRVKSMAPRHPDWARRQPFKAALQDDHAALAKGGDVALMKIVGATHTDMSTDTFTRSVRYWASTARHPRFDRLYTELTFAPMRELLDYLRAHGFKTYIVSGGETEFMRSWTQQAYGIPPEQVIGSSFVTTYGVRDGEPTLWRHGKLEFNDDGPGKPVAIQRYIGRRPILAFGNSDGDLQMLQWTAAGDGKRFAGLVHHTDAQREWAYDRDSRIGRLDRALDEARRQDWTVVDMKTEWKRVYAFEQP | not failed |
| LENQISFRKALSDSLPNPTYVVNWQGNVISHNSAFEHYFTADYYKNAMLPLENSDSPFKDVFSNAHEVTAETKENRTIYTQVFEIDNGIEKRCINHWHTLCNLPASDNAVYICGWQDITETRDLINALEVEKNKAIKATVAKSQFLATMSHEIRTPISSIMGFL | failed |
| MTDQVFGKVSKVVCVGAGYVGGPTCAMIAHKCPHITVTVVDMNTAKIAEWNSDKLPIYEPGLDEIVFAARGRNLFFSSDIPKAIAEADLIFISVNTPTKMYGRGKGMAPDLKYVESVSRTIAQYAGGPKIVVEKSTVPVKAAESIGCILREAQKNNENLKFQVLSNPEFLAEGTAMKDLANPDRVLIGGESSPEGLQAVAELVRIYENWVPRNRIITTNTWSSELSKLVANAFLAQRISSINSISAVCEATGAEISEVAHAVGYDTRIGSKFLQASVGFGGSCFQKDVLSLVYLCESLNLPQVADYWQGVININNWQRRRFADKIIAELFNTVTDKKIAIFGFAFKKNTGDTRESSAIHVIKHLMEEHAKLSVYDPKVQKSQMLNDLASVTSAQDVERLITVESDPYAAARGAHAIVVLTEWDEFVELNYSQIHNDMQHPAAIFDGRLILDQKALREIGFRTFAIGTSPDQAYNLFGTAGY | not failed |
| MTMEPRVLRREEWDSWYGSLIRAFGGVPEPAEELELFRELTRVDRSIGVWERDGEAEACVGTTGSFDFRMTVPGGAQVRAAGVTMVSVAATHRRRGVLTSMMRRQLDDVRAWGEPLAVLTASEPAIYGRFGYGAATFSLSAEIDTSRVRLSVPAGTDDVRLRYAAPADVLDACEAVYARLVPGRPGMLARRPGWERLALLDPESGRDGASPLQCVVARRGGEVTGFARFRVRPAWGPEGAGGTVVLDDLAGLDPATEAALWRFLYDVDLTSRLAVRGRPVDEAWQYQVSDIRRCRPESRDALYVRLVDVGAALAARTYQAPVDVVFEVEDAFCPWNAGRWRLSGDAKGASCERTSDGADLALSVRELGAAYLGGVRLSSLGAAGRVREVRAGALAEASVGFGSDVAPWLPHGF | failed |
| MASGKSIMGGLPPLKPGEKLPRLQTVIATSPENPAGDPNIRPQQAGEAAGKVIGGGLGVLLVTVCVLLLLGPVLWAPGWAGLRVARFLSGPWQPWLAGFAAFVAVAVLQTFLLIQRHPALRYPIVTLFSVLWVGGLWLEFNSPRHDWVTTAPTLQMPGPWSWALIISGSVVYAGIYLLALAPVGKSRWARRWQLLK | failed |
